From PMC6163455 (Biomolecules, 2018)

System: CHO-K1 cells
Test: cell fractionation and anti-β-lactamase immunoblotting
Type: cell-based, Chinese hamster
Settings: 8 µM, 1.5 h at 37 °C, digitonin cytosol extraction, 4 µg aliquots, anti-β-lactamase antibody, Figure S1
Method: Supplementary Information
Supplementary Figures: β-Lactamase Tools for Establishing Cell Internalization and Cytosolic
Delivery of Cell Penetrating Peptides
Figure S1. Verification of cell penetrating peptides (CPP)-mediated β-lactamase internalization by immunoblotting. MW: molecular weight.
Aliquots (4 µg) of cytosolic and membrane soluble CHO-K1 cell fractions from β-lactamase assays were separated by sodium dodecyl sulfate–polyacrylamide gel electrophoresis (SDS-PAGE) through a 4-12% (w/v) polyacrylamide Bis-Tris gel, transferred to polyvinylidene difluoride (PVDF) membrane, and immunoblotted. β-lactamase conjugated (e.g., 1746_SpyT/SpyC_BLA) or fused (e.g., 1746_BLA recombinant) to 1746c27 and 1746 Phylomer cell penetrating peptides (CPPs) was detected in the cytosolic fraction to varying extents, while TAT-conjugated β-lactamase was predominantly detected in the membrane fraction of cell lysates. […]
delivered into the cytosol by the 1746 CPP. Internalization of unconjugated SpyC_BLA protein was not detected, either on its own (SpyC_BLA (no CPP)) or in the presence of 1746c27 peptide (1746c27, SpyC_BLA), illustrating there is no bystander uptake effect. […]
Aliquots of extracted fractions (4 µg) were separated through a 4–12% Bis-Tris gel (Invitrogen, Carlsbad, CA, USA). Protein expression in the fractions was detected using monoclonal anti-β- […]

B1: 1746_BLA: recombinant fusion of phylomer CPP 1746 with β-lactamase (protein)
chain: MASPLKPKKPKTQEKKKKQPPKPKKPKTQEKKKKQPPKPKRASSGSHHHHHHGATLEVLFQGPGGSHPETLVKVKDAEDQLGARVGYIELDLNSGKILESFRPEERFPMMSTFKVLLCGAVLSRIDAGQEQLGRRIHYSQNDLVEYSPVTEKHLTDGMTVRELCSAAITMSDNTAANLLLTTIGGPKELTAFLHNMGDHVTRLDRWEPELNEAIPNDERDTTTPAAMATTLRKLLTGELLTLASRQQLIDWMEADKVAGPLLRSALPAGWFIADKSGAGERGSRGIIAALGPDGKPSRIVVIYTTGSQATMDERNRQIAEIGASLIKHWQLGSASGTTGATSG
β-lactamase detected in cytosolic and membrane cell fractions (immunoblot): very strong signal in the cytosolic fractions
